Source: IntAct's records for PubMed 26237645

B1: Fumarate hydratase, mitochondrial (Homo sapiens), P07954 (parent)
chain: MYRALRLLARSRPLVRAPAAALASAPGLGGAAVPSFWPPNAARMASQNSFRIEYDTFGELKVPNDKYYGAQTVRSTMNFKIGGVTERMPTPVIKAFGILKRAAAEVNQDYGLDPKIANAIMKAADEVAEGKLNDHFPLVVWQTGSGTQTNMNVNEVISNRAIEMLGGELGSKIPVHPNDHVNKSQSSNDTFPTAMHIAAAIEVHEVLLPGLQKLHDALDAKSKEFAQIIKIGRTHTQDAVPLTLGQEFSGYVQQVKYAMTRIKAAMPRIYELAAGGTAVGTGLNTRIGFAEKVAAKVAALTGLPFVTAPNKFEALAAHDALVELSGAMNTTACSLMKIANDIRFLGSGPRSGLGELILPENEPGSSIMPGKVNPTQCEAMTMVAAQVMGNHVAVTVGGSNGHFELNVFKPMMIKNVLHSARLLGDASVSFTENCVVGIQANTERINKLMNESLMLVTALNPHIGYDKAAKIAKTAHKNGSTLKETAIELGYLTAEQFDEWVKPKDMLGPK

Variants of: B1
Details: with h2az_human H2AZ1, P0C0S5
Chain of h2az_human H2AZ1, P0C0S5 (P0C0S5 whole entry): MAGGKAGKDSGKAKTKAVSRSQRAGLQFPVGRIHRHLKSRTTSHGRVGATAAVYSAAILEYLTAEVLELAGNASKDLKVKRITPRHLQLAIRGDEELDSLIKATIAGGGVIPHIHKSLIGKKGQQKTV

Row | Variant | effect of a mutation on the interaction
1 | MYRALRLLARSRPLVRAPAAALASAPGLGGAAVPSFWPPNAARMASQNSFRIEYDTFGELKVPNDKYYGAQTVRSTMNFKIGGVTERMPTPVIKAFGILKRAAAEVNQDYGLDPKIANAIMKAADEVAEGKLNDHFPLVVWQTGSGTQTNMNVNEVISNRAIEMLGGELGSKIPVHPNDHVNKSQSSNDTFPTAMHIAAAIEVHEVLLPGLQKLHDALDAKSKEFAQIIKIGRTHAQDAVPLTLGQEFSGYVQQVKYAMTRIKAAMPRIYELAAGGTAVGTGLNTRIGFAEKVAAKVAALTGLPFVTAPNKFEALAAHDALVELSGAMNTTACSLMKIANDIRFLGSGPRSGLGELILPENEPGSSIMPGKVNPTQCEAMTMVAAQVMGNHVAVTVGGSNGHFELNVFKPMMIKNVLHSARLLGDASVSFTENCVVGIQANTERINKLMNESLMLVTALNPHIGYDKAAKIAKTAHKNGSTLKETAIELGYLTAEQFDEWVKPKDMLGPK [T236A] | disrupting interaction strength
2 | MYRALRLLARSRPLVRAPAAALASAPGLGGAAVPSFWPPNAARMASQNSFRIEYDTFGELKVPNDKYYGAQTVRSTMNFKIGGVTERMPTPVIKAFGILKRAAAEVNQDYGLDPKIANAIMKAADEVAEGKLNDHFPLVVWQTGSGTQTNMNVNEVISNRAIEMLGGELGSKIPVHPNDHVNKSQSSNDTFPTAMHIAAAIEVHEVLLPGLQKLHDALDAKSKEFAQIIKIGRTHDQDAVPLTLGQEFSGYVQQVKYAMTRIKAAMPRIYELAAGGTAVGTGLNTRIGFAEKVAAKVAALTGLPFVTAPNKFEALAAHDALVELSGAMNTTACSLMKIANDIRFLGSGPRSGLGELILPENEPGSSIMPGKVNPTQCEAMTMVAAQVMGNHVAVTVGGSNGHFELNVFKPMMIKNVLHSARLLGDASVSFTENCVVGIQANTERINKLMNESLMLVTALNPHIGYDKAAKIAKTAHKNGSTLKETAIELGYLTAEQFDEWVKPKDMLGPK [T236D] | increasing interaction strength

Variants of: B1
Details: with h2az_human H2AZ1, P0C0S5
Remark: another data set of the same source

Row | Variant | effect of a mutation on the interaction
3 | MYRALRLLARSRPLVRAPAAALASAPGLGGAAVPSFWPPNAARMASQNSFRIEYDTFGELKVPNDKYYGAQTVRSTMNFKIGGVTERMPTPVIKAFGILKRAAAEVNQDYGLDPKIANAIMKAADEVAEGKLNDHFPLVVWQTGSGTQTNMNVNEVISNRAIEMLGGELGSKIPVHPNDHVNKSQSSNDTFPTAMHIAAAIEVHEVLLPGLQKLHDALDAKSKEFAQIIKIGRTHAQDAVPLTLGQEFSGYVQQVKYAMTRIKAAMPRIYELAAGGTAVGTGLNTRIGFAEKVAAKVAALTGLPFVTAPNKFEALAAHDALVELSGAMNTTACSLMKIANDIRFLGSGPRSGLGELILPENEPGSSIMPGKVNPTQCEAMTMVAAQVMGNHVAVTVGGSNGHFELNVFKPMMIKNVLHSARLLGDASVSFTENCVVGIQANTERINKLMNESLMLVTALNPHIGYDKAAKIAKTAHKNGSTLKETAIELGYLTAEQFDEWVKPKDMLGPK [T236A] | decreasing interaction strength
